What was measured:
[1] = target: 불활화 FMDV 혈청형 O (Foot-and-mouth disease virus serotype O)
[2] = target: 구제역 바이러스 혈청형 O 배양액(cal1~cal4) (Foot-and-mouth disease virus serotype O); experiment: sandwich ELISA, cal1, 1E58 coat 1 ug/ml, 1E58-HRP 0.6 ug/ml, 450 nm
[3] = target: 구제역 바이러스 혈청형 O 배양액(cal1~cal4) (Foot-and-mouth disease virus serotype O); experiment: sandwich ELISA, cal1, 1E58 coat 2 ug/ml, 1E58-HRP 0.2 ug/ml, 450 nm
[4] = target: 구제역 바이러스 혈청형 O 배양액(cal1~cal4) (Foot-and-mouth disease virus serotype O); experiment: sandwich ELISA, cal1, 1E58 coat 2 ug/ml, 1E58-HRP 0.6 ug/ml, 450 nm
[5] = target: 구제역 바이러스 혈청형 O 배양액(cal1~cal4) (Foot-and-mouth disease virus serotype O); experiment: sandwich ELISA, cal1, 1E58 coat 4 ug/ml, 1E58-HRP 0.2 ug/ml, 450 nm
[6] = target: 구제역 바이러스 혈청형 O 배양액(cal1~cal4) (Foot-and-mouth disease virus serotype O); experiment: sandwich ELISA, cal1, 1E58 coat 4 ug/ml, 1E58-HRP 0.4 ug/ml, 450 nm
[7] = target: 구제역 바이러스 혈청형 O 배양액(cal1~cal4) (Foot-and-mouth disease virus serotype O); experiment: sandwich ELISA, cal1, 1E58 coat 8 ug/ml, 1E58-HRP 0.4 ug/ml, 450 nm
[8] = target: 구제역 바이러스 혈청형 O 배양액(cal1~cal4) (Foot-and-mouth disease virus serotype O); experiment: sandwich ELISA, cal1, 1E58 coat 8 ug/ml, 1E58-HRP 0.8 ug/ml, 450 nm
[9] = target: 구제역 바이러스 혈청형 O 배양액(cal1~cal4) (Foot-and-mouth disease virus serotype O); experiment: sandwich ELISA, cal2, 1E58 coat 2 ug/ml, 1E58-HRP 0.4 ug/ml, 450 nm
[10] = target: 구제역 바이러스 혈청형 O 배양액(cal1~cal4) (Foot-and-mouth disease virus serotype O); experiment: sandwich ELISA, cal2, 1E58 coat 8 ug/ml, 1E58-HRP 0.2 ug/ml, 450 nm
[11] = target: 구제역 바이러스 혈청형 O 배양액(cal1~cal4) (Foot-and-mouth disease virus serotype O); experiment: sandwich ELISA, cal2, 1E58 coat 8 ug/ml, 1E58-HRP 0.8 ug/ml, 450 nm
[12] = target: 구제역 바이러스 혈청형 O 배양액(cal1~cal4) (Foot-and-mouth disease virus serotype O); experiment: sandwich ELISA, cal3, 1E58 coat 1 ug/ml, 1E58-HRP 0.4 ug/ml, 450 nm
[13] = target: 구제역 바이러스 혈청형 O 배양액(cal1~cal4) (Foot-and-mouth disease virus serotype O); experiment: sandwich ELISA, cal3, 1E58 coat 1 ug/ml, 1E58-HRP 0.6 ug/ml, 450 nm
[14] = target: 구제역 바이러스 혈청형 O 배양액(cal1~cal4) (Foot-and-mouth disease virus serotype O); experiment: sandwich ELISA, cal3, 1E58 coat 2 ug/ml, 1E58-HRP 0.4 ug/ml, 450 nm
[15] = target: 구제역 바이러스 혈청형 O 배양액(cal1~cal4) (Foot-and-mouth disease virus serotype O); experiment: sandwich ELISA, cal3, 1E58 coat 2 ug/ml, 1E58-HRP 0.6 ug/ml, 450 nm
[16] = target: 구제역 바이러스 혈청형 O 배양액(cal1~cal4) (Foot-and-mouth disease virus serotype O); experiment: sandwich ELISA, cal3, 1E58 coat 4 ug/ml, 1E58-HRP 0.2 ug/ml, 450 nm
[17] = target: 구제역 바이러스 혈청형 O 배양액(cal1~cal4) (Foot-and-mouth disease virus serotype O); experiment: sandwich ELISA, cal3, 1E58 coat 4 ug/ml, 1E58-HRP 0.4 ug/ml, 450 nm
[18] = target: 구제역 바이러스 혈청형 O 배양액(cal1~cal4) (Foot-and-mouth disease virus serotype O); experiment: sandwich ELISA, cal3, 1E58 coat 4 ug/ml, 1E58-HRP 0.6 ug/ml, 450 nm
[19] = target: 구제역 바이러스 혈청형 O 배양액(cal1~cal4) (Foot-and-mouth disease virus serotype O); experiment: sandwich ELISA, cal3, 1E58 coat 4 ug/ml, 1E58-HRP 0.8 ug/ml, 450 nm
[20] = target: 구제역 바이러스 혈청형 O 배양액(cal1~cal4) (Foot-and-mouth disease virus serotype O); experiment: sandwich ELISA, cal3, 1E58 coat 8 ug/ml, 1E58-HRP 0.2 ug/ml, 450 nm
[21] = target: 구제역 바이러스 혈청형 O 배양액(cal1~cal4) (Foot-and-mouth disease virus serotype O); experiment: sandwich ELISA, cal3, 1E58 coat 8 ug/ml, 1E58-HRP 0.6 ug/ml, 450 nm
[22] = target: 구제역 바이러스 혈청형 O 배양액(cal1~cal4) (Foot-and-mouth disease virus serotype O); experiment: sandwich ELISA, cal3, 1E58 coat 8 ug/ml, 1E58-HRP 0.8 ug/ml, 450 nm
[23] = target: 구제역 바이러스 혈청형 O 배양액(cal1~cal4) (Foot-and-mouth disease virus serotype O); experiment: sandwich ELISA, cal4, 1E58 coat 1 ug/ml, 1E58-HRP 0.2 ug/ml, 450 nm
[24] = target: 구제역 바이러스 혈청형 O 배양액(cal1~cal4) (Foot-and-mouth disease virus serotype O); experiment: sandwich ELISA, cal4, 1E58 coat 1 ug/ml, 1E58-HRP 0.8 ug/ml, 450 nm
[25] = target: 구제역 바이러스 혈청형 O 배양액(cal1~cal4) (Foot-and-mouth disease virus serotype O); experiment: sandwich ELISA, cal4, 1E58 coat 2 ug/ml, 1E58-HRP 0.2 ug/ml, 450 nm
[26] = target: 구제역 바이러스 혈청형 O 배양액(cal1~cal4) (Foot-and-mouth disease virus serotype O); experiment: sandwich ELISA, cal4, 1E58 coat 4 ug/ml, 1E58-HRP 0.2 ug/ml, 450 nm
[27] = target: 구제역 바이러스 혈청형 O 배양액(cal1~cal4) (Foot-and-mouth disease virus serotype O); experiment: sandwich ELISA, cal4, 1E58 coat 8 ug/ml, 1E58-HRP 0.4 ug/ml, 450 nm
[28] = target: 구제역 바이러스 혈청형 O 배양액(cal1~cal4) (Foot-and-mouth disease virus serotype O); experiment: sandwich ELISA, cal4, 1E58 coat 8 ug/ml, 1E58-HRP 0.6 ug/ml, 450 nm

B1: 단클론항체 1E58 (antibody, V domains shown)
VH: EFQLQQSRPELAKPGASVKISCKTSGHTFTTYTMHWVKQSHVKSLEWIGCFNPNNGGATYNQKFKGKATLTMDKSSNTAYVEVRSLTSDDSAVYYCAYGNYVNFDYWGQGTTLTVSS
VL: DIVLTQSPASLAVSLGQRATISYRASKSVSTSGYSYMHWNQQKPGQPPRLLIYLVSNLESGVPARFSGSGSGTDFTLNIHPVEEEDAATYYCQHIRELTRSEGGPSWKN
Q: B1 was tested. Which O.D (450nm) [1] did it give?
A: 1.09 O.D

Q: What about the O.D [2] of the same binder?
A: 2.98 O.D

Q: And the O.D [3]?
A: 3.12 O.D

Q: What about the O.D [4] of the same binder?
A: 3.68 O.D

Q: What about the O.D [5] of the same binder?
A: 3.47 O.D

Q: What about the O.D [6] of the same binder?
A: 3.15 O.D

Q: What about the O.D [7] of the same binder?
A: 3.18 O.D

Q: What about the O.D [8] of the same binder?
A: 4 O.D

Q: What about the O.D [9] of the same binder?
A: 2.49 O.D

Q: And the O.D [10]?
A: 1.24 O.D

Q: And the O.D [11]?
A: 4 O.D

Q: And the O.D [12]?
A: 0.77 O.D

Q: And the O.D [13]?
A: 0.83 O.D

Q: What about the O.D [14] of the same binder?
A: 1.37 O.D

Q: What about the O.D [15] of the same binder?
A: 1.89 O.D

Q: What about the O.D [16] of the same binder?
A: 1.14 O.D

Q: What about the O.D [17] of the same binder?
A: 1.78 O.D

Q: And the O.D [18]?
A: 2.15 O.D

Q: What about the O.D [19] of the same binder?
A: 2.65 O.D

Q: What about the O.D [20] of the same binder?
A: 0.62 O.D

Q: What about the O.D [21] of the same binder?
A: 1.13 O.D

Q: What about the O.D [22] of the same binder?
A: 1.31 O.D

Q: What about the O.D [23] of the same binder?
A: 0.5 O.D

Q: And the O.D [24]?
A: 1.07 O.D

Q: And the O.D [25]?
A: 0.62 O.D

Q: What about the O.D [26] of the same binder?
A: 0.63 O.D

Q: What about the O.D [27] of the same binder?
A: 0.39 O.D

Q: What about the O.D [28] of the same binder?
A: 0.62 O.D
